Data on one substance can be found in patent US20250145729A1.

The term Kd denotes a measure of binding affinity in units of concentration. A high value points to a looser complex.

In the test the target is cyno CD98hc (cynomolgus monkey). Kind of test: SPR (Biacore). (In SPR one partner is held on a chip, and binding of the other changes the refractive index at the surface.)

In the case of “LLB2.C.1 (from UniProt P0DOX5 233-449) (Fc fusion)”, the Kd turned out to be 1.5 µM.
